Measurements from article PMC6159515.

Molecular target: CglEndoMS-ΔCter, His-tagged (lacks the five carboxy-terminal residues of CglEndoMS) (Corynebacterium glutamicum ATCC 13032)
Assay: SEC

Substance: CglEndoMS-ΔCter, His-tagged (lacks the five carboxy-terminal residues of CglEndoMS) (domain or fragment)
- stoichiometry N: 2
